Data taken from paper PMC11770335.

Experiments:
[1] = molecular target: E. coli Hfq V22A (E. coli) (UniProt P0A6X3); assay: crystal structure; co-crystal of Hfq V22A with A17 RNA; 15% PEGSH, 0.15 M ammonium acetate, 0.1 M trisodium citrate pH 5; 2.1 Å
[2] = molecular target: E. coli Hfq V22A (E. coli) (UniProt P0A6X3); assay: crystal structure; co-crystal of Hfq V22A with pA4 RNA; 22.5% PEGSB, 0.2 M LiSO4, 0.05 M zinc acetate, 0.1 M Bis-Tris pH 7.5; roughly 3.0 Å

Q: Which results are given for “E. coli Hfq V22A (from UniProt P0A6X3 1-102) (natural protein)”?
A: stoichiometry N [1]: 6; stoichiometry N [2]: 6
